B1: Vti1, the vacuolar Qb-SNARE (wild type, membrane-anchored) (natural protein)
chain: MSSLLISYESDFKTTLEQAKASLAEAPSQPLSQRNTTLKHVEQQQDELFDLLDQMDVEVNNSIGDASERATYKAKLREWKKTIQSDIKRPLQSLVDSGDRDRLFGDLNASNIDDDQRQQLLSNHAILQKSGDRLKDASRIANETEGIGSQIMMDLRSQRETLENARQTLFQADSYVDKSIKTLKTMTRRLVANKFISYAIIAVLILLILLVLFSKFK
B3: Qa(JxR): Vam3 with the juxtamembrane region of Nyv1 and its own TM (other)
chain: MSFFDIEAQSSKGNSQQEPQFSTNQKTKELSNLIETFAEQSRVLEKECTKIGSKRDSKELRYKIETELIPNCTSVRDKIESNILIHQNGKLSADFKNLKTKYQSLQQSYNQRKSLFPLKTPISPGTSKERKDIHPRTEAVRQDPESSYISIKVNEQSPLLHNEGQHQLQLQEEQEQQQQGLSQEELDFQTIIHQERSQQIGRIHTAVQEVNAIFHQLGSLVKEQGEQVTTIDENISHLHDNMQNANKQLTRADEIMWWQKVKKVTLIIIIVVCMVVLLAVLS

Common to all, as to assay: co-IP
Experiment [1] concerns the target T1, Vam3, the vacuolar Qa-SNARE (wild type) (yeast, UniProt Q12241 1-283).
T1 sequence: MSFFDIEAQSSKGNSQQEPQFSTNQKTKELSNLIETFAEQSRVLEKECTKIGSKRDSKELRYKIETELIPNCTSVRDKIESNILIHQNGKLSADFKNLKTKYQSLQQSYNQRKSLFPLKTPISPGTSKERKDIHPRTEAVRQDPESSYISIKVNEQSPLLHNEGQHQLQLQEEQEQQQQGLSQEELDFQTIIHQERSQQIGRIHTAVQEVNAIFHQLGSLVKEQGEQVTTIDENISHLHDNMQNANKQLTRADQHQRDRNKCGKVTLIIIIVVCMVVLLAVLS

The target of experiment [2] is B3.
In experiment [3] the target is B1.

Take B1: the binding result in experiment [1] is “binds”.

B2: R(JxQa): Nyv1 with the juxtamembrane region of Vam3 and its own TM (other)
chain: MKRFNVSYVEVIKNGETISSCFQPFQKNENYGTITSANEQITPVIFHNLIMDMVLPKVVPIKGNKVTKMSMNLIDGFDCFYSTDDHDPKTVYVCFTLVDMPKILPIRILSGLQEYESNATNELLSSHVGQILDSFHEELVEYRNQTLNSSGNGQSSNGNGQNTISDIGDATEDQIKDVIQIMNDNIDKFLERQERVSLLVDKTSQLNSSSNKFRRKAVNIKQHQRDRNKCGNITLLTFTIILFVSAAFMFFYLW
As for B2, the binding result in experiment [2] was “binds”.

As for B3, in experiment [3], the binding result was “binds”.

(Values after publication PMC9282010 (Molecular Biology of the Cell, 2022).)
